Reference: patent US20180155451A1 (published 2018)

B1: GpH7-A5/GpH7-B3 variant (S337_04F)/GpL16-k0 (antibody, human IgG1, kappa)
heavy 1: not shown
heavy 2: not shown
light: DIVMTQSPLSLPVTPGEPASISCQASESLVHSNRNTYLHWYLQKPGQSPQLLIYKVSNRFSGVPDRFSGSGSGTDFTLKISRVEAEDVGVYYCSQNTHVPPTFGQGTKVEIERTVAAPSVFIFPPSDEQLKSGTASVVCLLNNFYPREAKVQWKVDNALQSGNSQESVTEQDSKDSTYSLSSTLTLSKADYEKHKVYACEVTHQGLSSPVTKSFNRGEC
notes: Heterodimerized; only the B3 chain altered; also called He Ab S337_04F
B2: GpH7-A5/GpH7-B3 variant (T335_10E)/GpL16-k0 (antibody, human IgG1, kappa)
heavy 1: not shown
heavy 2: not shown
light: DIVMTQSPLSLPVTPGEPASISCQASESLVHSNRNTYLHWYLQKPGQSPQLLIYKVSNRFSGVPDRFSGSGSGTDFTLKISRVEAEDVGVYYCSQNTHVPPTFGQGTKVEIERTVAAPSVFIFPPSDEQLKSGTASVVCLLNNFYPREAKVQWKVDNALQSGNSQESVTEQDSKDSTYSLSSTLTLSKADYEKHKVYACEVTHQGLSSPVTKSFNRGEC
notes: Heterodimerized; only the B3 chain altered; also called He Ab T335_10E
B3: GpH7-A5/GpH7-B3 variant (S337_08L)/GpL16-k0 (antibody, human IgG1, kappa)
heavy 1: not shown
heavy 2: not shown
light: DIVMTQSPLSLPVTPGEPASISCQASESLVHSNRNTYLHWYLQKPGQSPQLLIYKVSNRFSGVPDRFSGSGSGTDFTLKISRVEAEDVGVYYCSQNTHVPPTFGQGTKVEIERTVAAPSVFIFPPSDEQLKSGTASVVCLLNNFYPREAKVQWKVDNALQSGNSQESVTEQDSKDSTYSLSSTLTLSKADYEKHKVYACEVTHQGLSSPVTKSFNRGEC
notes: Heterodimerized; only the B3 chain altered; also called He Ab S337_08L
B4: GpH7-A5/GpH7-B3 variant (S337_06M)/GpL16-k0 (antibody, human IgG1, kappa)
heavy 1: not shown
heavy 2: not shown
light: DIVMTQSPLSLPVTPGEPASISCQASESLVHSNRNTYLHWYLQKPGQSPQLLIYKVSNRFSGVPDRFSGSGSGTDFTLKISRVEAEDVGVYYCSQNTHVPPTFGQGTKVEIERTVAAPSVFIFPPSDEQLKSGTASVVCLLNNFYPREAKVQWKVDNALQSGNSQESVTEQDSKDSTYSLSSTLTLSKADYEKHKVYACEVTHQGLSSPVTKSFNRGEC
notes: Heterodimerized; only the B3 chain altered; also called He Ab S337_06M
B5: GpH7-A5/GpH7-B3 variant (T335_11K)/GpL16-k0 (antibody, human IgG1, kappa)
heavy 1: not shown
heavy 2: not shown
light: DIVMTQSPLSLPVTPGEPASISCQASESLVHSNRNTYLHWYLQKPGQSPQLLIYKVSNRFSGVPDRFSGSGSGTDFTLKISRVEAEDVGVYYCSQNTHVPPTFGQGTKVEIERTVAAPSVFIFPPSDEQLKSGTASVVCLLNNFYPREAKVQWKVDNALQSGNSQESVTEQDSKDSTYSLSSTLTLSKADYEKHKVYACEVTHQGLSSPVTKSFNRGEC
notes: Heterodimerized; only the B3 chain altered; also called He Ab T335_11K
B6: GpH7-A5/GpH7-B3 variant (T335_16H)/GpL16-k0 (antibody, human IgG1, kappa)
heavy 1: not shown
heavy 2: not shown
light: DIVMTQSPLSLPVTPGEPASISCQASESLVHSNRNTYLHWYLQKPGQSPQLLIYKVSNRFSGVPDRFSGSGSGTDFTLKISRVEAEDVGVYYCSQNTHVPPTFGQGTKVEIERTVAAPSVFIFPPSDEQLKSGTASVVCLLNNFYPREAKVQWKVDNALQSGNSQESVTEQDSKDSTYSLSSTLTLSKADYEKHKVYACEVTHQGLSSPVTKSFNRGEC
notes: Heterodimerized; only the B3 chain altered; also called He Ab T335_16H
B7: GpH7-A5/GpH7-B3 variant (S337_10E)/GpL16-k0 (antibody, human IgG1, kappa)
heavy 1: not shown
heavy 2: not shown
light: DIVMTQSPLSLPVTPGEPASISCQASESLVHSNRNTYLHWYLQKPGQSPQLLIYKVSNRFSGVPDRFSGSGSGTDFTLKISRVEAEDVGVYYCSQNTHVPPTFGQGTKVEIERTVAAPSVFIFPPSDEQLKSGTASVVCLLNNFYPREAKVQWKVDNALQSGNSQESVTEQDSKDSTYSLSSTLTLSKADYEKHKVYACEVTHQGLSSPVTKSFNRGEC
notes: Heterodimerized; only the B3 chain altered; also called He Ab S337_10E
B8: GpH7-A5/GpH7-B3 variant (T335_18N)/GpL16-k0 (antibody, human IgG1, kappa)
heavy 1: not shown
heavy 2: not shown
light: DIVMTQSPLSLPVTPGEPASISCQASESLVHSNRNTYLHWYLQKPGQSPQLLIYKVSNRFSGVPDRFSGSGSGTDFTLKISRVEAEDVGVYYCSQNTHVPPTFGQGTKVEIERTVAAPSVFIFPPSDEQLKSGTASVVCLLNNFYPREAKVQWKVDNALQSGNSQESVTEQDSKDSTYSLSSTLTLSKADYEKHKVYACEVTHQGLSSPVTKSFNRGEC
notes: Heterodimerized; only the B3 chain altered; also called He Ab T335_18N
B9: GpH7-A5/GpH7-B3 variant (S337_15Y)/GpL16-k0 (antibody, human IgG1, kappa)
heavy 1: not shown
heavy 2: not shown
light: DIVMTQSPLSLPVTPGEPASISCQASESLVHSNRNTYLHWYLQKPGQSPQLLIYKVSNRFSGVPDRFSGSGSGTDFTLKISRVEAEDVGVYYCSQNTHVPPTFGQGTKVEIERTVAAPSVFIFPPSDEQLKSGTASVVCLLNNFYPREAKVQWKVDNALQSGNSQESVTEQDSKDSTYSLSSTLTLSKADYEKHKVYACEVTHQGLSSPVTKSFNRGEC
notes: Heterodimerized; only the B3 chain altered; also called He Ab S337_15Y
B10: GpH7-A5/GpH7-B3 variant (T335_05P)/GpL16-k0 (antibody, human IgG1, kappa)
heavy 1: not shown
heavy 2: not shown
light: DIVMTQSPLSLPVTPGEPASISCQASESLVHSNRNTYLHWYLQKPGQSPQLLIYKVSNRFSGVPDRFSGSGSGTDFTLKISRVEAEDVGVYYCSQNTHVPPTFGQGTKVEIERTVAAPSVFIFPPSDEQLKSGTASVVCLLNNFYPREAKVQWKVDNALQSGNSQESVTEQDSKDSTYSLSSTLTLSKADYEKHKVYACEVTHQGLSSPVTKSFNRGEC
notes: Heterodimerized; only the B3 chain altered; also called He Ab T335_05P
B11: GpH7-A5/GpH7-B3 variant (S337_09D)/GpL16-k0 (antibody, human IgG1, kappa)
heavy 1: not shown
heavy 2: not shown
light: DIVMTQSPLSLPVTPGEPASISCQASESLVHSNRNTYLHWYLQKPGQSPQLLIYKVSNRFSGVPDRFSGSGSGTDFTLKISRVEAEDVGVYYCSQNTHVPPTFGQGTKVEIERTVAAPSVFIFPPSDEQLKSGTASVVCLLNNFYPREAKVQWKVDNALQSGNSQESVTEQDSKDSTYSLSSTLTLSKADYEKHKVYACEVTHQGLSSPVTKSFNRGEC
notes: Heterodimerized; only the B3 chain altered; also called He Ab S337_09D

Biological target: T1, FcγRIa extracellular domain with C-terminal His tag (human, UniProt P12314 16-292)
T1 construct: extracellular domain; Expressed in FreeStyle293 cells; used as analyte in Biacore; also called FcgRI; 1a; not shown: His tag at the C terminus
Test: SPR (Biacore), captured antibody, FcγRIa analyte; relative to GpH7-A5/GpH7-B3/GpL16-k0 = 100

T1 sequence (P12314 16-292): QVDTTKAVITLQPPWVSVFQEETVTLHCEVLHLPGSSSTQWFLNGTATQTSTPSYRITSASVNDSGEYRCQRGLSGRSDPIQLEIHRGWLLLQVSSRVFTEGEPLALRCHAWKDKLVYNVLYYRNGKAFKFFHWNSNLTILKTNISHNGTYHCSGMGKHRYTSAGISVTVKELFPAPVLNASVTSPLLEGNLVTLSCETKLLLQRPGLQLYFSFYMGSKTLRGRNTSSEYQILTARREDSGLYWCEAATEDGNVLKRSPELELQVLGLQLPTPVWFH

Binder | He/Con_1a
B1 | 106 % of control
B2 | 109 % of control
B3 | 105 % of control
B4 | 107 % of control
B5 | 111 % of control
B6 | 106 % of control
B7 | 106 % of control
B8 | 106 % of control
B9 | 104 % of control
B10 | 106 % of control
B11 | 106 % of control
